How the values were obtained:
Assay in all cases: SPR, antibody on sensor, monomeric PD-1 ECD in solution
[1] = biological target: T1, cynomolgus PD-1 ECD (Acro Biosystems cat. no. PD1-05223) (cynomolgus, UniProt B0LAJ3 25-170)
T1 construct: Bought monomeric ECD; not shown: any purification tag of the vendor's product (Acro Biosystems PD1-05223, probably a His tag)
Method: (§1) The kinetic binding analysis was performed by Surface Plasmon Resonance (SPR) using a Continuous Flow Microspotter (CFM, Wasatch Microfluidics, US) combined with an Ibis MX96 SPR instrument (IBIS Technologies, The Netherlands). Surface Plasmon Resonance imaging analysis was performed on G-a-hu-IgG Fc SensEye® SPR sensors (Ssens BV, The Netherlands). Anti-PD-1 antibodies expressed in IgG₁ LALA format (i.e., having the mutations L234A/L235A) were diluted to 2.5 nM in PBS-T (1×PBS with 0.05% Tween 20, pH 7.4). Antibodies were spotted onto a G-a-hu-IgG Fc SensEye® for 15 minutes using a Continuous Flow Microspotter (CFM, Wasatch Microfluidics, Salt Lake City, US). After spotting, the SensEye® was positioned in the IBIS MX96 biosensor, and antibodies were chemically fixed to the sensor surface using Fix It Kit (Ssens BV, The Netherlands). Kinetic analysis was performed by applying a kinetic titration series (Karlsson et. al., Anal. Biochem. 349(1):136-47 (2006)), where monomeric PD-1 antigen was injected in increasing concentrations from 2 nM to 100 nM without application of surface regeneration steps after each antigen injection. Binding was tested to human PD-1 ECD (Acro Biosystems cat. no. PD1-H52219), mouse PD-1 ECD (Sino Biological. cat. no. 50124-MO8H) and cynomolgus PD-1 ECD (Acro Biosystems cat. no. PD1-05223) in three separate experiments. Antigen association was performed for 15 minutes and antigen dissociation was performed for 60 minutes. The kinetic analysis was performed at 25° C. After completion, the recorded binding responses were fitted to a simple Langmuir 1:1 binding model with Scrubber 2 software for calculation of the on-rate (kₒₙ or kₐ), off-rate (koff or kd) and affinity (KD) constants.

[2] = biological target: T2, mouse PD-1 ECD (Sino Biological cat. no. 50124-MO8H) (mouse, UniProt Q02242 25-169)
T2 construct: extracellular domain; Bought monomeric ECD
T2 sequence (looked up): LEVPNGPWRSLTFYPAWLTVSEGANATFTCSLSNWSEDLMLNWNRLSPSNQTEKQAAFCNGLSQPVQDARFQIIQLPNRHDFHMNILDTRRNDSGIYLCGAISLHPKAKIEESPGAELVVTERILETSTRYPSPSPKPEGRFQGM
Method: as §1

[3] = biological target: T3, human PD-1 ECD (Acro Biosystems cat. no. PD1-H52219) (human, UniProt Q15116 25-170)
T3 construct: extracellular domain; Bought monomeric ECD; also called monomeric PD-1 antigen
T3 sequence (Q15116 25-170, one chain of several): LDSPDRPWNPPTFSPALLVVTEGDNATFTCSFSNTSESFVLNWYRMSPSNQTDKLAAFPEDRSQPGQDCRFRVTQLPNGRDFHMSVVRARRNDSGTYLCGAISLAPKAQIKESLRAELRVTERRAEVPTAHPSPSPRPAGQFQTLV
Method: as §1

T1 sequence (B0LAJ3 entry or part of it limits assumed): as the sequence (Q15116 25-170, one chain of several) above, with D2E, P10A, V19L, T35A, Q75R, T144A counted along it

B1: antibody 18049 (antibody, V domains shown)
VH: QVQLVESGGGVVQPGRSLRLSCAASGFTFSNYGMHWVRQAPGKGLEWVAVIWYDGSDKYYADSVKGRFTISRDNSKNTLYLQMNSLRAEDTAVYYCAGGGNYYGDFWGQGTLVTVSS
VL: EIVMTQSPSSLSASVGDRVTITCRASQGIRNDLGWYQQKPGKAPKRLIYVASNLQSGVPSRFSGSGSGTEFTLTISSLQPEDFATYYCLQYNSYPWTFGQGTKVEIKR
notes: Tested as human IgG1 L234A/L235A (LALA), kappa
- Kd [1]: 2.1 nM
- koff [1]: 8e-05 s⁻¹
- kon [1]: 38000 M⁻¹ s⁻¹
- binding result [2]: no binding (tested: 100 nM)
- Kd [3]: 1.8 nM
- koff [3]: 6e-05 s⁻¹
- kon [3]: 34000 M⁻¹ s⁻¹

B2: antibody 18400 (antibody, V domains shown)
VH: QLQLQESGPGLVKPSGTLSLTCAVSGGSISSSNWWSWVRQPPKKGLEWVGEIFHDGTTSYNPSLKSRVTMSVDKSKNQFSLKLSSVTAADTAVYYCARGNWGSGALDIWGPGTMVTVSS
VL: EIVMTQSPSPLSASVGDRVTITCRASQGIRNDLGWYQQKPGKAPKLLIYAASSLQSGVPSRFSGSGSGTDFTLTISSLQPEDFATYYCLQDYNYPRTFGQGTKVEIKR
notes: as for B1
- Kd [1]: 3.7 nM
- koff [1]: 0.00087 s⁻¹
- kon [1]: 230000 M⁻¹ s⁻¹
- Kd [2]: 11 nM
- koff [2]: 5e-05 s⁻¹
- kon [2]: 4700 M⁻¹ s⁻¹
- Kd [3]: 1.6 nM
- koff [3]: 0.00035 s⁻¹
- kon [3]: 230000 M⁻¹ s⁻¹

B3: antibody 18098 (antibody, V domains shown)
VH: QVQLQESGGGLVRPGGSLRLSCAASGFTFSSFAMNWVRQAPGKGLVWVSTITGGGTTSYYADSVKGRFTISRDNSKSTLFLQMNSLRAEDTAVYYCAKWGSWSAGAFDIWGQGTTVTVSS
VL: DIQLTQSPSSVSASVGDRVTITCRASQGISSWLAWYQQKPGKAPKLLIYAASSLQSGVPSRFSGSGSGTDFTLTISSLQPEDFATYYCQQANSFPWTFGQGTKVEIKR
notes: as for B1
- Kd [1]: 34 nM
- koff [1]: 0.0013 s⁻¹
- kon [1]: 39000 M⁻¹ s⁻¹
- binding result [2]: no binding (tested: 100 nM)
- Kd [3]: 2.3 nM
- koff [3]: 0.00023 s⁻¹
- kon [3]: 100000 M⁻¹ s⁻¹

B4: antibody 18325 (antibody, V domains shown)
VH: QVQLQQSGGGLVQPGGSLRLSCAASGFTFSSHVMNWVRQAPGKGLEWVATISGSGVDTYYADSVKGRFTISRGNSKNMLYLQMNSLRAEDTAVYYCAKWGSWSAGAFDIWGQGTMVTVSS
VL: EIVLTQSPSSVSASVGDRVTITCRASQGISSWLAWYQQKPGKAPKLLIYAASSLQSGVPSRFSGSGSGTDFTLTISSLQPEDFATYYCQQANSFPWTFGQGTKVEIKR
notes: as for B1
- Kd [1]: 4.3 nM
- koff [1]: 0.00062 s⁻¹
- kon [1]: 140000 M⁻¹ s⁻¹
- binding result [2]: no binding (tested: 100 nM)
- Kd [3]: 0.82 nM
- koff [3]: 0.00011 s⁻¹
- kon [3]: 130000 M⁻¹ s⁻¹

B5: antibody 18413 (antibody, V domains shown)
VH: EVQLVESGGGLVQPGGSLRLSCAASGFTFSSFVMSWVRQAPGKGLEWLSTISGGGGSTYYADSVKGRFTISRDNSKNTLYLQMNSLRAEDTAVYYCAKDWDLYYFDYWGQGTLVTVSS
VL: DIQLTQSPSSVPASVGDRVTITCRASQGISNWLAWYQQKPGKAPKLLIYAASSLQSGVPSRFSGSGSGTDFTLTISSLQPEDFATYYCQQANSFPLTFGGGTKVEIKR
notes: as for B1
- Kd [1]: 6.4 nM
- koff [1]: 0.00062 s⁻¹
- kon [1]: 97000 M⁻¹ s⁻¹
- binding result [2]: no binding (tested: 100 nM)
- Kd [3]: 1.5 nM
- koff [3]: 0.00011 s⁻¹
- kon [3]: 77000 M⁻¹ s⁻¹

B6: antibody 18040 (antibody, V domains shown)
VH: QVQLVESGGGLVKPGGSLRLSCAASGFTFSDYYMNWIRQAPGKGLEWVSYISSTGSTIYYADSVKGRFTISRDNAKNSLYLQMDSLRAEDTAVYYCARATNWGSDYWGQGTLVTVSS
VL: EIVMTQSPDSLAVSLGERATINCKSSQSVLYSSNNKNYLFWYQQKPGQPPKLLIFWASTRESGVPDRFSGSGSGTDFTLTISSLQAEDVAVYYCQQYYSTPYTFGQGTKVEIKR
notes: Tested as human IgG1 L234A/L235A (LALA), kappa; The VH/VL entries carry X at variable positions
- Kd [1]: 2.9 nM
- koff [1]: 0.00097 s⁻¹
- kon [1]: 340000 M⁻¹ s⁻¹
- binding result [2]: no binding (tested: 100 nM)
- Kd [3]: 0.41 nM
- koff [3]: 0.00011 s⁻¹
- kon [3]: 260000 M⁻¹ s⁻¹

B7: antibody 18113 (antibody, V domains shown)
VH: QVQLVESGGGLVKPGGSLRLSCAASGFTFSDYYMSWIRQAPGKGLEWVSYISSSGSTIYYADSAKGRFTISRDNAKNSLYLQMNSLRAEDTAVYYCARDTNWAFDYWGQGTLVTVSS
VL: DIQLTQSPDSLAVSLGERATINCKSSQSVFYSANNKNYLAWYQQKPGQPPKLLIYWTSTRESGVPDRFRGSGSGTDFTLTISSLQAEDVAVYYCQQFYSTPRTFGQGTKVEIKR
notes: as for B1
- Kd [1]: 5.3 nM
- koff [1]: 0.00076 s⁻¹
- kon [1]: 140000 M⁻¹ s⁻¹
- binding result [2]: no binding (tested: 100 nM)
- Kd [3]: 0.6 nM
- koff [3]: 0.0001 s⁻¹
- kon [3]: 170000 M⁻¹ s⁻¹

B8: antibody 18483 (antibody, V domains shown)
VH: QVQLQQSGGGLVQPGGSLRLSCAASGFTFSDYWMNWVRQAPGKGLEWVANIKEDGNEKYYVDSVKGRFTISRDNAKNSLYLQMNSLRAEDTAVYYCARDTNWGSDYWGQGTLVTVSS
VL: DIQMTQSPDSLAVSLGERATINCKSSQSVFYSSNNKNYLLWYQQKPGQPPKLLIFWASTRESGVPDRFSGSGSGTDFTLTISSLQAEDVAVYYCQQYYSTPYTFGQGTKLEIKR
notes: as for B1
- Kd [1]: 3.1 nM
- koff [1]: 0.0008 s⁻¹
- kon [1]: 260000 M⁻¹ s⁻¹
- binding result [2]: no binding (tested: 100 nM)
- Kd [3]: 0.29 nM
- koff [3]: 0.00017 s⁻¹
- kon [3]: 580000 M⁻¹ s⁻¹

Source: patent US20190367616A1 (SYMPHOGEN A S, published 2019)
